What was measured:
Assay in all cases: crystal structure; TG3 form mixed with Fab DH63-B02 at 1:1.1 molar ratio, complex purified by SEC; crystals in 0.1 M HEPES-MOPS pH 7.1, 16-22% ethylene glycol, 8-11% PEG 8000, 6-10 mM CaCl2, 3-10 mM MgCl2; three Ca2+ bound
Conditions in all cases: both partners purified
[1] = molecular target: T1, dispase-cleaved TG3 (N-terminal and core domains with C1C2 non-covalently associated) (Homo sapiens, UniProt Q08188)
T1 construct: human transglutaminase 3, N-terminal and catalytic core domains (N-core, 51 kDa) left by dispase cleavage in the loop 461-473; human transglutaminase 3, the two C-terminal beta-barrel domains C1C2 (26 kDa) left by dispase cleavage in the loop 461-473; TG3 was His-tagged before cleavage; source: Sf9 insect cells, purified (Ni-NTA); cleaved with dispase I, SEC
T1 sequence (Q08188 whole entry, chain 1 of 2, the tested form may be a part): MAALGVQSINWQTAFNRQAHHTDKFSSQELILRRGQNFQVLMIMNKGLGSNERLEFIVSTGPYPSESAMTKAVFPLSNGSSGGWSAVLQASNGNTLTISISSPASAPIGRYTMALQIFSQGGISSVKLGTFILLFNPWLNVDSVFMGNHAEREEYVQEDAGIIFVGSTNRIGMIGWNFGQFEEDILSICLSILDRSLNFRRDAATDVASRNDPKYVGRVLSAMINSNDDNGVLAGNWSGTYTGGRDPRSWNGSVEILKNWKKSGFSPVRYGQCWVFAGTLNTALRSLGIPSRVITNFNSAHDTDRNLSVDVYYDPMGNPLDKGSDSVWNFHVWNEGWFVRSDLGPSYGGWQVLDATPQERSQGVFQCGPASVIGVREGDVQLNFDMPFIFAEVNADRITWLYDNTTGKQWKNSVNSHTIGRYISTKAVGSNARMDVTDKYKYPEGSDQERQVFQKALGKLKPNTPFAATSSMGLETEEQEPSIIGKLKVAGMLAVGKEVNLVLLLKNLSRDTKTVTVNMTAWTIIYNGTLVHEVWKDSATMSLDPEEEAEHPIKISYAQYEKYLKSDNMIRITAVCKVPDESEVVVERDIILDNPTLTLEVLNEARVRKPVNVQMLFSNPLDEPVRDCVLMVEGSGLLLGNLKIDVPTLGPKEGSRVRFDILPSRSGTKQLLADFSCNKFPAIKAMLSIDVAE
T1 sequence (Q08188 whole entry, chain 2 of 2, the tested form may be a part): as the sequence (Q08188 whole entry, chain 1 of 2, the tested form may be a part) above

[2] = molecular target: T2, Z-DON-associated TG3 without C1C2 (enzyme-substrate intermediate conformer) (human, UniProt Q08188, Cys273 alkylated by Z-DON (Z-DON-Val-Pro-Leu-OMe))
T2 construct: human transglutaminase 3, N-terminal and catalytic core domains (N-core, 51 kDa) left by cleavage in the loop 461-473; TG3 was His-tagged before cleavage; The cleavage sites of dispase and cathepsin L may differ; also called cleaved TG3 + Z-DON; source: Sf9 insect cells, purified (Ni-NTA); cleaved with dispase I or cathepsin L, incubated with Z-DON, SEC
T2 sequence (Q08188 2-461): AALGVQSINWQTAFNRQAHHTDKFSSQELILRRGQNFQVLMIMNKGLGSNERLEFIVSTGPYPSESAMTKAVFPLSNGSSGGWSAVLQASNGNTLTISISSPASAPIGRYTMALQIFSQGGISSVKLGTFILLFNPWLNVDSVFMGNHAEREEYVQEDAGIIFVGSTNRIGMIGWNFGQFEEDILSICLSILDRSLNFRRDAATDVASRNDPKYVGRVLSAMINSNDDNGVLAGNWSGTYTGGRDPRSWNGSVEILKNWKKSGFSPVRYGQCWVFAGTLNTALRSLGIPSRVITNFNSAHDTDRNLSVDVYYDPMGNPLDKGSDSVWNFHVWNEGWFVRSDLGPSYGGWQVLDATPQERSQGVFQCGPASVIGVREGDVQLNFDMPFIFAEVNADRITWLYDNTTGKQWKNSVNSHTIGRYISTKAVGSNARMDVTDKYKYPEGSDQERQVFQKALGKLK

[3] = molecular target: T3, zymogen transglutaminase 3 (TG3), human recombinant (Homo sapiens, UniProt Q08188)
T3 construct: human transglutaminase 3, uncleaved zymogen (79 kDa), with N-terminal, catalytic core, C1 and C2 domains; the loop 461-473 is intact; also called TG3 zymogen; zymogen TG3; source: Sf9 insect cells, purified (Ni-NTA)
T3 sequence (Q08188 whole entry, the tested form may be a part): as the sequence (Q08188 whole entry, chain 1 of 2, the tested form may be a part) above

[4] = molecular target: T4, N-terminal and core domains (N-core) of cleaved TG3 (Homo sapiens, UniProt Q08188)
T4 construct: human transglutaminase 3, N-terminal and catalytic core domains (N-core, 51 kDa) left by cleavage in the loop 461-473; also called catalytic core domain; catalytic domain; source: Sf9 insect cells, purified (Ni-NTA); cleaved with dispase I or cathepsin L, SEC
T4 sequence (Q08188 whole entry, the tested form may be a part): as the sequence (Q08188 whole entry, chain 1 of 2, the tested form may be a part) above

Measured: binding result

B1: Fab fragment of the anti-TG3 antibody DH63-B02 (Fab, V domains shown)
VH: EVQLVESGGGLVQPGRSLRLSCTASGFTFDDYAMHWVRQAPGKGLEWVSRISWNSRSIAYADSVKGRFTISRDSAKNSLYLQMNSLRTEDTALYYCAKDHYLGSDSYGMDVWGQGTTVTVSS
VL: NFMLTQPHSVSESPGKTVTISCTRSSGSIDSNYVQWYQQRPGSAPTIVIHEDNQRPSGVPDRFSGSIDTSSNSASLTISGLKTEDEADYYCQSYDPSNVVFGGGTKLTVL
notes: Fab heavy chain of the human antibody DH63-B02 from a dermatitis herpetiformis patient; Fab light chain of DH63-B02, purified on a resin for human lambda light chains; also called Fab DH63-B02; the Fab
binds: all assays above

From article PMC10556103, “Autoantibody binding and unique enzyme-substrate intermediate conformation of human transglutaminase 3” (Nature Communications, 2023)
